± gives the uncertainty stated by the source.

The series can be described thus: amyloid nucleation score (Sup35N fusion, yeast selection) (log enrichment); library NNK1; higher = more nucleation; inactive = no reads after selection. The method in brief: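 After 24 hours of induction with 100 μM copper sulfate, psi-negative yeast expressing peptides of 20 random codons fused to Sup35N were grown for 7 days at 30°C on medium lacking adenine and uracil. Input and output plasmid inserts were sequenced with Illumina, and sequences with under 100 input reads were discarded. Scores for nucleation are the DiMSum log enrichment of output over input reads, centred on the mode score of non-aggregating sequences.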
KCYIVSLNNVGCFTNASS came in with an amyloid nucleation score of 5.13 ± 0.072. AWNGFDWYHARFCTMSTYIL returned an amyloid nucleation score of -0.56 ± 0.38. On to RVIILMFTHRTCNS, for which the amyloid nucleation score is -1.07 ± 2.7. Then YCTLRESKPPMDGSM, with -0.898 ± 1.7; and AGYCVCLYMLEYSGTFGYSH, with 1.63 ± 0.19. The substance HLIDVTILGWDEVSIM returned an amyloid nucleation score of 1.26 ± 0.37. As to HGRQE, the amyloid nucleation score is 0.184 ± 1. LSIIVHNCGVLVVSMTLTVI displayed an amyloid nucleation score of -0.172 ± 1.6. Substance CWFTAVLARPLWNSSVSSVA displayed an amyloid nucleation score of -0.369 ± 0.34.

Take AQQGIYCRCTVCGQ: the amyloid nucleation score came to 1.41 ± 0.28. Regarding GQTVNCNATYFSVTIVGIVG, the amyloid nucleation score stood at 2.8 ± 0.13. Substance TYEYTRWGWYYLS registered an amyloid nucleation score of 1.11 ± 0.12.

IHGNDPMLTVGSSMYV came in with an amyloid nucleation score of 0.323 ± 0.41. For MRQAGACNLRQSHVEQVCQQ, the amyloid nucleation score is 0.135 ± 0.38. LKASWRAGRATVREKGCKLA: the amyloid nucleation score was 0.505 ± 0.38. Then FAVSIVSFLRASVVDWVWYT, with -0.209 ± 0.66.

As for ILRCRGNALNAYWRGSFNR, the amyloid nucleation score was found to be 4.59 ± 0.078. On to DIGRSAGRGVFVFSLLCNKW, for which the amyloid nucleation score was 3.63 ± 0.18. As for SWLVPR, the amyloid nucleation score is -0.104 ± 0.25. The substance DKYTARDVSKRT returned an amyloid nucleation score of 1.56 ± 0.59. Then RDPRAMQLKSRLGMWKNQWY, with 0.91 ± 0.78; and HVGSATASRVMSGCGSTVSY, with -1.83 ± 1.7. The substance MSLPYVICQQDR showed an amyloid nucleation score of -0.794 ± 1.4. Then VPENLVKMSEV, with 0.279 ± 0.71; and HRSRLFAISERFEDIFYI, with 0.611 ± 0.78; and GIYSFGLCVGDIS, with -0.623 ± 0.34.

For the substance FGDGIDSNVSMVEN, the amyloid nucleation score result was “inactive”. For the substance GAGIENPSASVIMKREWEVL, the amyloid nucleation score was determined as 0.382 ± 0.44. Then RICLLRRGVCTHNVDMVVMY, with -0.873 ± 0.68.

On to SHQSDGNWQMVYWCLLVRFT, for which the amyloid nucleation score is -0.709 ± 0.56. On to ICQTFASCEFDGCLLH, for which the amyloid nucleation score is 3.47 ± 0.12. For the substance SYGRLVGTWL, the amyloid nucleation score is -0.111 ± 0.54.

In turn, SIQNPLNLVDNLPTT gave an amyloid nucleation score of -0.114 ± 0.21.

DVYVACTSFDLELCICVMRL returned an amyloid nucleation score of 0.237 ± 0.7.

YWDGYEVDVNGVREYEGNAV showed an amyloid nucleation score of 0.305 ± 0.19. On to CSDRRS, for which the amyloid nucleation score is -0.054 ± 0.53.

As to ILNGSPKWNGWRTITCSAVS, the amyloid nucleation score worked out at 0.667 ± 0.44. Consider DHLVEQYDRGDAAFFRLVFV, for which the amyloid nucleation score entry was “inactive”.

In the case of NYNQGRGYRSVSSNIIEGDK, the amyloid nucleation score was 1.74 ± 0.49. TFECIIWFLGATVMSMQLFI showed an amyloid nucleation score of 1.93 ± 0.62. Substance RTDFLMFIGCVMNKICTLKA registered an amyloid nucleation score of 0.73 ± 0.33.

The substance KLPIAGCYRVINCTVRGE came in with an amyloid nucleation score of -0.008 ± 0.26. For YFAVDDNYLHIQTSVRSRCS, the amyloid nucleation score was 0.036 ± 0.41. Substance ALIFYRFLL gave an amyloid nucleation score of 0.863 ± 0.41. VATYLLDHVYLNSCQSHCAM showed an amyloid nucleation score of 1 ± 0.35. Regarding GIGFNHVSHLVKENS, the amyloid nucleation score is -0.192 ± 0.97. Regarding IVMCTVGKSLMIAQKDHAWA, the amyloid nucleation score is -0.109 ± 0.61. For the substance IATGMWLYVSLVTPQHSLVN, the amyloid nucleation score is 0.101 ± 0.49. Regarding RALRGSECGMNRRPLRGCVK, the amyloid nucleation score was -0.167 ± 0.22. Then HISLHYYKICNRFDLYNKDS, with 7.107 ± 0.065. As to QVVPC, the amyloid nucleation score is -0.153 ± 0.66. The substance CEVAQCHYLVVWFCAWAWRY came in with an amyloid nucleation score of 0.939 ± 0.68. DFRLGHDFWANKSFFFTSPN: the amyloid nucleation score was -0.028 ± 0.31.

MFSRF had an amyloid nucleation score of 0.607 ± 0.79.

Consider MWFRTAST, for which the amyloid nucleation score came to 6.339 ± 0.047. Turning to GRNTGFFHFLWLFRYVTLVM, the amyloid nucleation score is -1.58 ± 1.7. Then IALASCVCLSACWTLDVNSM, with 0.989 ± 0.31.

On to HLIWL, for which the amyloid nucleation score is -0.203 ± 1.1.

Substance HSVIIALRGCIRIG gave an amyloid nucleation score of 2.25 ± 0.15.

The substance RETYLALRRYSDLTFINRTL yielded an amyloid nucleation score of 1.21 ± 0.29.

On to CLDVFASISMRHFYFVFMCY, for which the amyloid nucleation score stood at 0.487 ± 0.75. SSKSAWYVRWSVSVQNKGRG yielded an amyloid nucleation score of -0.363 ± 0.44. With VMESTRNFSKVMSCSLFRFR, the amyloid nucleation score was -0.684 ± 0.62. On to MVHMCWLTME, for which the amyloid nucleation score was 0.454 ± 0.25. CFDFYSYRVVSSAINYQFVM had an amyloid nucleation score of -1.02 ± 0.39.

Substance RMDSRKGTNNKSFSGGLEYR showed an amyloid nucleation score of -0.366 ± 0.32. The substance INIGFMKGV came in with an amyloid nucleation score of 0.416 ± 0.61. Then YFRSSGGAFFGNLDVCGNYV, with 0.124 ± 0.48. The substance KTLFMITYFGL had an amyloid nucleation score of 0.85 ± 0.26. RSDWFHMCNNT gave an amyloid nucleation score of 2.38 ± 0.089.

LCDLWQHFSSSNVTGGLRRN came in with an amyloid nucleation score of 0.966 ± 0.54.

LRRLSIANLFIFAFSWRFYW came in with an amyloid nucleation score of 1.03 ± 0.52. In turn, TYRVLGWMYTCW displayed an amyloid nucleation score of -0.809 ± 1.1.

As for KNFRRYWGPSLIEIG, the amyloid nucleation score was found to be 1.13 ± 0.85.

In turn, QGIEKGFDWKRIFCGELYVQ showed an amyloid nucleation score of -0.065 ± 0.4.

TFHNSYLYGTRNVWMLYSVR came in with an amyloid nucleation score of 3.47 ± 0.091.

In turn, SCTLYYTSGSIMYAVMVLQE displayed an amyloid nucleation score of 0.526 ± 0.49. To DRDASSLGFIFFFGCLEGLT belongs -0.93 ± 0.76. As to PYLNY, the amyloid nucleation score was -0.153 ± 0.43.

In the case of TFTCMPLLWLIFS, the amyloid nucleation score is 6.029 ± 0.057. Then GFLNYHWAGSYFERGM, with 3.04 ± 0.13. Take EIMKCFNFTHMVEMKSMKRN: the amyloid nucleation score amounted to 2.62 ± 0.087. For KYMFRARCKRMTFGYPG, the amyloid nucleation score is -1.58 ± 1.4. For EYIYNIAEWVD, the amyloid nucleation score is -1.05 ± 0.79. SSSSVVLTRLQPTTGSYEMT registered an amyloid nucleation score of -0.667 ± 1.6. To CTEFRFF belongs 0.314 ± 0.47; to VYGVRAIR, 0.503 ± 0.61. Then KWYERLCIRATLKATLGYFT, with 0.055 ± 0.69; and TYHVSEV, with -0.175 ± 0.24; and TSGFKLGRSGGYVCRS, with 1.41 ± 0.78.

Regarding YLWVIATLQFEV, the amyloid nucleation score is -0.783 ± 0.63. In the case of LITLREVTYIFNWTFLNYLR, the amyloid nucleation score was -0.305 ± 0.43. Substance INMLTWGWELILSGSSVYED registered an amyloid nucleation score of -0.151 ± 0.41. LMVISYRCDATGRRRVSLD gave an amyloid nucleation score of 0.867 ± 0.25. CLVVPCD yielded an amyloid nucleation score of 0.151 ± 0.42. Take DGNNNKLVMVLWLSYADYRW: the amyloid nucleation score result is “inactive”.

On to VRRIAWSNGWCRGIGGRSVL, for which the amyloid nucleation score was -0.179 ± 0.39. For the substance CPVWELLKDCMCHKNGLFCT, the amyloid nucleation score was determined as 1.28 ± 0.58. Consider GYLQR, for which the amyloid nucleation score came to 0.158 ± 0.59.

Consider VISGSDVLRYPRYSNAAFRT, for which the amyloid nucleation score result is “inactive”. To VHLSGFVSLNLTVVSIRCIA belongs 2.06 ± 0.31; to SSCYLCLVVYSFTS, 5.3 ± 0.072; to LLDWGFPG, -1.22 ± 1.6. To FLMDNDKIHYGYISSVCTSY belongs “inactive”; to ARYYIVREGSEKCDLLTGRG, 0.004 ± 0.61; to NSVWHGLYCSQQRSLRTTRL, 0.116 ± 0.29. Substance FLRVILRVYLAVLRGNRQCN yielded an amyloid nucleation score of -0.716 ± 0.36. To CMLLNWIPMRRARLTTFVGK belongs 0.433 ± 0.58; to PYSLQSTLHVRER, 0.485 ± 0.35.

On to KIVCLKFYVIDMRSMLTVVS, for which the amyloid nucleation score stood at 2.54 ± 0.088. On to MNRHGYHNIWWYTTSHGLYT, for which the amyloid nucleation score was -1.05 ± 2.7. In turn, ILSLIVFNYDYCSKVWNLLG came in with an amyloid nucleation score of -1.53 ± 0.66.

For WQCDLNDLLVCTFSMLGYGR, the amyloid nucleation score is -1.05 ± 1.7.

IECCFAYGRYLMWVGMYGSK showed an amyloid nucleation score of 0.79 ± 0.59. Then YLQVGASADWKLTYSGSGNV, with 2.72 ± 0.23. To FSRISCFP belongs 0.638 ± 0.61.

In turn, SQLNCIDRTMGYDDRMEIRS registered an amyloid nucleation score of 0.014 ± 0.42. Substance VVSNVPVWTSGYYHHCCHRC showed an amyloid nucleation score of 0.856 ± 0.79. As for CVELVLSCV, the amyloid nucleation score was -0.095 ± 0.43. IMRNVQTDA had an amyloid nucleation score of 0.383 ± 0.52. In turn, TNYDFMVCCFKPSMAYGKCM had an amyloid nucleation score of -0.354 ± 0.63. To NATNLENQKFTEDALKSPGW belongs -0.037 ± 0.71; to EEYNVNCTSFVGRFSRC, -0.008 ± 0.5; to GQNLGRSRLGNVYRGPCGNC, -0.095 ± 1.1.

The substance FNHMLSMVGSRVCYLAMSFV came in with an amyloid nucleation score of 0.17 ± 0.58. Substance IPNISGYPHICMESGGSLVC returned an amyloid nucleation score of 0.004 ± 0.61.

As to SRFNSWLCCEND, the amyloid nucleation score was 1.76 ± 0.35.

On to SGVVE, for which the amyloid nucleation score was -0.433 ± 0.39. TDKSCRRNGTHAMVHFTPEL had an amyloid nucleation score of -1.99 ± 1.7.

Consider HFGAYLVVM, for which the amyloid nucleation score is -0.299 ± 0.35. In the case of YPTYCLGCMS, the amyloid nucleation score is 0.672 ± 0.51. MLLSH returned an amyloid nucleation score of 4.34 ± 0.056. With VSLLSVWFDTHYIWSITGVD, the amyloid nucleation score was -0.247 ± 0.45.

LPLICRSSGLLV: the amyloid nucleation score is -0.405 ± 1.6.

In the case of LLWTSNIIYMSFAVRNKSVR, the amyloid nucleation score is 0.59 ± 0.32. For the substance IAAYLVVDILPGSI, the amyloid nucleation score was -0.036 ± 0.6. As to RFLRAPGLCSVCSCE, the amyloid nucleation score was -0.729 ± 0.85. Then FRLRL, with 0.019 ± 0.83. RASTNLRSEIDVNNRGWLRW gave an amyloid nucleation score of 1.32 ± 0.42. Substance HEVWH showed an amyloid nucleation score of -0.379 ± 0.55. For the substance CMGLFVTSSL, the amyloid nucleation score is 0.38 ± 1.2. Take NLSTCDE: the amyloid nucleation score worked out at 1.03 ± 0.58.

(Values after the supplement of paper PMC12042874.)
